Source: patent US20200234789A1, “DESIGNED PROTEINS FOR LIGAND BINDING” (THE REGENTS OF THE UNIVERSITY OF CALIFORNIA, priority 2017, published 2020)

Assays:
[1] = Porphyrin binding to apo-protein, electronic absorption spectra ((CF3)4PZn loading)
Procedure: FIGS. 3A-3D. Biophysical characterization of apo- and holo-PS1. FIG. 3A: Electronic absorption and emission spectra of (CF3)4PZn/PS1 holo-protein and (CF3)4PZn in toluene solvent. […] FIG. 3B: Determination of KD by apo-PS1 titration into a buffer solution (100 mM NaCl, 50 mM NaPi, pH 7.5) of (CF3)4PZn with 1% w/v octyl-b-D-glucopyranoside. […] FIG. 3C: Circular dichroism (CD) spectra of apo- and holo-PS1 in 50 mM NaPi, 100 mM NaCl, pH 7.5 as a function of temperature. The transitions appear reversible based on the fact that the spectra are identical after cooling to room temperature. Units are in molar residue ellipticity. […] FIG. 3D: Pump-probe transient absorption spectra of (CF3)4PZn bound in the interior of holo-PS1 at 21° C. and 100° C. […] Inset exemplifies identical transient dynamics (primarily intersystem crossing from S1 to T1) at ΔAbs.=482 nm (scaled). Experimental conditions: solvent=50 mM NaPi, 100 mM NaCl, pH 7.5; excitation wavelength=600±5 nm; magic-angle polarization between pump and probe pulses; pump-probe cross-correlation of ˜250 fs.
FIG. 10. Absorption spectra of (CF3)4PZn/PS1 and (CF3)4PZn/PS2 complexes. […] Experimental conditions: buffer=100 mM NaCl, 50 mM NaPi, pH 7.5.
A 2-fold excess of the cofactor (CF3)4PZn was added from a 4 mM DMSO stock solution to a 50 mM NaPi, 100 mM NaCl, pH 7.5 buffer with apo-protein (Note that final DMSO concentrations were kept <1%.). Buffer solution of apo-PS1 protein was heated for 5 minutes at 50° C., (CF3)4PZn was then added from the DMSO stock solution, the resultant mixture was vortexed for 5 seconds, and placed back in the heat block at 50° C. for 15 minutes, with vortexing every 3 minutes. The protein/cofactor solution was then spun at 14000×g in a Amicon Ultra-0.5 mL centrifuge filter for 10 min, three times, replacing the buffer to 0.5 mL after each 10 min spin. Finally, the protein solution was spun for 4 min at 12000×g in an Amicon ultrafree-MC GV filter (UFC30GV0S). The holo-PS1 sample was then used for spectroscopic experiments immediately afterward, and diluted to an appropriate concentration if necessary. Binding of (CF3)4PFe was carried out in the same fashion, with the exception that the porphyrin was first dissolved in a stock of DMSO/CHCl3.
Electronic absorption spectra were collected using a Shimadzu UV-1700 UV-Vis spectrophotometer or Cary 5000 spectrophotometer. Steady-state emission spectra were obtained on FLS920P spectrophotometer (Edinburgh Instruments Ltd. Livingston, UK) in 1 cm quartz optical cells. The steady-state emission spectra were corrected using the correction factor generated by the manufacturer.

[2] = Binding of endogenous heme on expression in E. coli (absorption spectra); format: cell-based; conditions: expressed in E. coli, Soret and Q bands at 410 and 550 nm
Procedure: FIGS. 18A-18B. enFold proteins are capable of noncovalently binding endogenous ligands in the cell. […] Inset: E. coli cultures of after induction). FIG. 18B: Denovo proteins from binary sequence patterning. Previous studies have only been able to incorporate heme exogenously, i.e. after expression and purification, heme is added to the purified apo-protein. See Patel et al, Protein Science, 18:1388-1400.
The computational method described here is capable of producing proteins that noncovalently bind ligands in vivo. We have observed loading of endogenous heme in a PS1 variant, where 7 terminal residues near the binding ligand site were deleted to allow incorporation of a heme ligand with its bulky, charged proprionate functional groups (FIG. 16). […] These apo-proteins remain competent to bind an endogenous ligand, for example heme (FIG. 17 and FIGS. 18A-18B). These proteins are the first de novo designed proteins to our knowledge that noncovalently bind heme in vivo.

B1: PS2: second designed porphyrin-binding protein with redesigned core (Ser94, Trp68), SEQ ID NO:7 (protein)
chain: SEFEKLRQTGDEIIQLLQRLREAIDKGDDDSLEQILEELEEAFQKHRQLFENRQEAADTEFAKQGDQWLQLFQRIREAIDKGDKDSLEQLFEESEQGIQKIRELAEKKN
[1]; (CF3)4PZn, based on absorbance at 280 nm and 423 nm, 100 mM NaCl, 50 mM NaPi, pH 7.5
  porphyrin loading: 100%
[1]; narrow electronic absorption bands of the porphyrin
  binding of (CF3)4PZn: bound (CF3)4PZn in a homogenous environment

B2: PS1 D103-109: PS1 variant with 7 terminal residues near the ligand binding site deleted, SEQ ID NO:8 (protein)
chain: EFEKLRQTGDELVQAFQRLREIFDKGDDDSLEQVLEEIEELIQKHRQLFDNRQEAADTEAAKQGDQWVQLFQRFREAIDKGDKDSLEQLLEELEQALQKIR
[2]
  binding / loading of endogenous heme: high loading of endogenous heme
[2]; listed as PS1 deletion variant
  binding / loading of endogenous heme: binds endogenous heme
